Literature values, collected in patent US8623606B2, “Screening method for GPCR ligands” (Max-Planck-Gesellschaft zur Forderung der wissenschaften …, priority 2006, dated 2014).
Read-outs that look alike come from different tables or passages of the source.

Columns and labels:
CRF1 receptor [1] = target: T1, CRF1 receptor (Homo sapiens, UniProt P34998)
T1 sequence (P34998 24-415): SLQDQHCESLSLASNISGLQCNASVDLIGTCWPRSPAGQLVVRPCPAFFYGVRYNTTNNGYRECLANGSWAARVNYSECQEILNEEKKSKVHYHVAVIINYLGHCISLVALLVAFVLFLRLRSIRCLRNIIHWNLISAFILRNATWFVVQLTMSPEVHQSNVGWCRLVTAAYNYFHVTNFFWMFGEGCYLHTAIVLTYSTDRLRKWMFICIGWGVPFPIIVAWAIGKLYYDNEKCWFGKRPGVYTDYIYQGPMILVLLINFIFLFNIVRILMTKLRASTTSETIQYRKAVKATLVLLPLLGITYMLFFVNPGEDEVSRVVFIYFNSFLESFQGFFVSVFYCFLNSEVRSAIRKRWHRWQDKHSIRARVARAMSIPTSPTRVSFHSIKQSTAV

CRF1 receptor [2] = target: T1, CRF1 receptor; remark: listed apart in the source
CRF R1 = conditions: FIG. 2A legend

Substance | influence on the J-domain signaling (CRF1 receptor [1]) | binding to the CRF1 receptor (in words) (CRF1 receptor [2]; FIG. 2B legend) | Kd (CRF1 receptor [2]; as reported in Yamada et al., read-out: binding constant to the N-terminal domain) | Kd (CRF1 receptor [2]; literature value, read-out: affinity of binding to the CRF1 receptor) | CRF R1 activation potency (testosterone production) (CRF R1)
Ac-E*AEK*NRLXDII-CONH2 [12 amino acid analog of astressin] | devoid of any detectable influence | binds tightly | 5 nM | 5.5 nM | –
Ucn1-19: N-terminal activation domain from the CRF R1 agonist rat urocortin (DDPPLSIDLTFHLLRTLLEIE; listed as Homo sapiens) | – | – | – | – | Neither of the isolated domains is active alone
consensus peptide derived from the C-terminus of CRF R1 antagonists: consensus peptide derived from the C-terminus of CRF R1 antagonists (NRKLLDEV; listed as Homo sapiens) | – | – | – | – | Neither of the isolated domains is active alone
